Broadly, the Kd is the free concentration of one partner at which half of the binding sites on the other are occupied at equilibrium, for simple one-to-one binding.

This is an account of results in article doi:10.1101/2020.01.22.915298 (bioRxiv, 2020).

The target in test [1] is Heparin-Binding EGF-like Growth Factor, recombinant (UniProt Q99075). The experiment in a line: SPR.
In test [2] the target is diphtheria toxin receptor-binding fragment (lysosomal targeting moiety) (Corynebacterium diphtheriae, UniProt P00588 418-567). The test is described as follows: SPR. For orientation: SPR reads the build-up and loss of mass on a sensor chip optically.
diphtheria toxin receptor-binding fragment (lysosomal targeting moiety), sequence (P00588 418-567): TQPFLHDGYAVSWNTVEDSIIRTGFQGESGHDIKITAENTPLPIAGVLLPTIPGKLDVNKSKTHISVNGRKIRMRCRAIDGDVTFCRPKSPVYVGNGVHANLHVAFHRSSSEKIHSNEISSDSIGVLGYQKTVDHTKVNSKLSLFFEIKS

For the molecule “LTM-TPP1 (TPP1 with an N-terminal LTM fusion)”, in test [1], the Kd turned out to be 19.1 nM.

B1: Heparin-Binding EGF-like Growth Factor, recombinant (receptor, UniProt Q99075 63-148, looked up)
chain: DLQEADLDLLRVTLSSKPQALATPNKEEHGKRKKKGKGLGKKRDPCLRKYKDFCIHGECKYVKELRAPSCICHPGYHGERCHGLSL
Molecule B1 displayed a Kd in test [2] of 13.3 nM.
